This experiment concerns the target cell-surface PDGF receptors (on rat stellate cells) (rat). As to the kind of experiment: cell-based or functional assay.

“PDGF-D GFD dimer (from UniProt Q5RA73 250-370) (ligand)” yielded a luciferase reporter (SRE/STAT) RLU in rat stellate cell lysate at 0.3 ng/ml of 160 RLU, a luciferase reporter (SRE/STAT) RLU in rat stellate cell lysate at 1 ng/ml of 278 RLU, a luciferase reporter (SRE/STAT) RLU in rat stellate cell lysate at 3 ng/ml of 400 RLU and a luciferase reporter (SRE/STAT) RLU in rat stellate cell lysate at 10 ng/ml of 542 RLU. Besides, the luciferase reporter (SRE/STAT) RLU in rat stellate cell lysate at 30 ng/ml turned out to be 672 RLU, the luciferase reporter (SRE/STAT) RLU in rat stellate cell lysate at 100 ng/ml turned out to be 826 RLU and the luciferase reporter (SRE/STAT) RLU in rat stellate cell lysate at 300 ng/ml turned out to be 883 RLU.

The values above are taken from patent US20030109000A1.
